B1: IL-2Rαβγ complex (complex)
chain 1: ELCDDDPPEIPHATFKAMAYKEGTMLNCECKRGFRRIKSGSLYMLCTGNSSHSSWDNQCQCTSSATRNTTKQVTPQPEEQKERKTTEMQSPMQPVDQASLPGHCREPPPWENEATERIYHFVVGQMVYYQCVQGYRALHRGPAESVCKMTHGKTRWTQPQLICTGEMETSQFPGEEKPQASPEGRPESETSCLVTTTDFQIQTEMAATMETSIFTTEYQVAVAGCVFLLISVLLLSGLTWQRRQRKSRRTI
chain 2: AVNGTSQFTCFYNSRANISCVWSQDGALQDTSCQVHAWPDRRRWNQTCELLPVSQASWACNLILGAPDSQKLTTVDIVTLRVLCREGVRWRVMAIQDFKPFENLRLMAPISLQVVHVETHRCNISWEISQASHYFERHLEFEARTLSPGHTWEEAPLLTLKQKQEWICLETLTPDTQYEFQVRVKPLQGEFTTWSPWSQPLAFRTKPAALGKDTIPWLGHLLVGLSGAFGFIILVYLLINCRNTGPWLKKVLKCNTPDPSKFFSQLSSEHGGDVQKWLSSPFPSSSFSPGGLAPEISPLEVLERDKVTQLLLQQDKVPEPASLSSNHSLTSCFTNQGYFFFHLPDALEIEACQVYFTYDPYSEEDPDEGVAGAPTGSSPQPLQPLSGEDDAYCTFPSRDDLLLFSPSLLGGPSPPSTAPGGSGAGEERMPPSLQERVPRDWDPQPLGPPTPGVPDLVDFQPPPELVLREAGEEVPDAGPREGVSFPWSRPPGQGEFRALNARLPLNTDAYLSLQELQGQDPTHLV
chain 3: LNTTILTPNGNEDTTADFFLTTMPTDSLSVSTLPLPEVQCFVFNVEYMNCTWNSSSEPQPTNLTLHYWYKNSDNDKVQKCSHYLFSEEITSGCQLQKKEIHLYQTFVVQLQDPREPRRQATQMLKLQNLVIPWAPENLTLHKLSESQLELNWNNRFLNHCLEHLVQYRTDWDHSWTEQSVDYRHKFSLPSVDGQKRYTFRVRSRFNPLCGSAQHWSEWSHPIHWGSNTSKENPFLFALEAVVISVGSMGLIISLLCVYFWLERTMPRIPTLKNLEDLVTEYHGNFSAWSGVSKGLAESLQPDYSERLCLVSEIPPKGGALGEGPGASPCNQHSPYWAPPCYTLKPET
B2: IL-2Rβγ complex (complex)
chain 1: AVNGTSQFTCFYNSRANISCVWSQDGALQDTSCQVHAWPDRRRWNQTCELLPVSQASWACNLILGAPDSQKLTTVDIVTLRVLCREGVRWRVMAIQDFKPFENLRLMAPISLQVVHVETHRCNISWEISQASHYFERHLEFEARTLSPGHTWEEAPLLTLKQKQEWICLETLTPDTQYEFQVRVKPLQGEFTTWSPWSQPLAFRTKPAALGKDTIPWLGHLLVGLSGAFGFIILVYLLINCRNTGPWLKKVLKCNTPDPSKFFSQLSSEHGGDVQKWLSSPFPSSSFSPGGLAPEISPLEVLERDKVTQLLLQQDKVPEPASLSSNHSLTSCFTNQGYFFFHLPDALEIEACQVYFTYDPYSEEDPDEGVAGAPTGSSPQPLQPLSGEDDAYCTFPSRDDLLLFSPSLLGGPSPPSTAPGGSGAGEERMPPSLQERVPRDWDPQPLGPPTPGVPDLVDFQPPPELVLREAGEEVPDAGPREGVSFPWSRPPGQGEFRALNARLPLNTDAYLSLQELQGQDPTHLV
chain 2: LNTTILTPNGNEDTTADFFLTTMPTDSLSVSTLPLPEVQCFVFNVEYMNCTWNSSSEPQPTNLTLHYWYKNSDNDKVQKCSHYLFSEEITSGCQLQKKEIHLYQTFVVQLQDPREPRRQATQMLKLQNLVIPWAPENLTLHKLSESQLELNWNNRFLNHCLEHLVQYRTDWDHSWTEQSVDYRHKFSLPSVDGQKRYTFRVRSRFNPLCGSAQHWSEWSHPIHWGSNTSKENPFLFALEAVVISVGSMGLIISLLCVYFWLERTMPRIPTLKNLEDLVTEYHGNFSAWSGVSKGLAESLQPDYSERLCLVSEIPPKGGALGEGPGASPCNQHSPYWAPPCYTLKPET
B3: IL-2Rαβγ complex (complex)
chain 1: ELCDDDPPEIPHATFKAMAYKEGTMLNCECKRGFRRIKSGSLYMLCTGNSSHSSWDNQCQCTSSATRNTTKQVTPQPEEQKERKTTEMQSPMQPVDQASLPGHCREPPPWENEATERIYHFVVGQMVYYQCVQGYRALHRGPAESVCKMTHGKTRWTQPQLICTGEMETSQFPGEEKPQASPEGRPESETSCLVTTTDFQIQTEMAATMETSIFTTEYQ
chain 2: AVNGTSQFTCFYNSRANISCVWSQDGALQDTSCQVHAWPDRRRWNQTCELLPVSQASWACNLILGAPDSQKLTTVDIVTLRVLCREGVRWRVMAIQDFKPFENLRLMAPISLQVVHVETHRCNISWEISQASHYFERHLEFEARTLSPGHTWEEAPLLTLKQKQEWICLETLTPDTQYEFQVRVKPLQGEFTTWSPWSQPLAFRTKPAALGKDT
chain 3: LNTTILTPNGNEDTTADFFLTTMPTDSLSVSTLPLPEVQCFVFNVEYMNCTWNSSSEPQPTNLTLHYWYKNSDNDKVQKCSHYLFSEEITSGCQLQKKEIHLYQTFVVQLQDPREPRRQATQMLKLQNLVIPWAPENLTLHKLSESQLELNWNNRFLNHCLEHLVQYRTDWDHSWTEQSVDYRHKFSLPSVDGQKRYTFRVRSRFNPLCGSAQHWSEWSHPIHWGSNTSKENPFLFALEA
B4: IL-2Rα (receptor)
chain: ELCDDDPPEIPHATFKAMAYKEGTMLNCECKRGFRRIKSGSLYMLCTGNSSHSSWDNQCQCTSSATRNTTKQVTPQPEEQKERKTTEMQSPMQPVDQASLPGHCREPPPWENEATERIYHFVVGQMVYYQCVQGYRALHRGPAESVCKMTHGKTRWTQPQLICTGEMETSQFPGEEKPQASPEGRPESETSCLVTTTDFQIQTEMAATMETSIFTTEYQ
B5: IL-2Rβ (receptor)
chain: AVNGTSQFTCFYNSRANISCVWSQDGALQDTSCQVHAWPDRRRWNQTCELLPVSQASWACNLILGAPDSQKLTTVDIVTLRVLCREGVRWRVMAIQDFKPFENLRLMAPISLQVVHVETHRCNISWEISQASHYFERHLEFEARTLSPGHTWEEAPLLTLKQKQEWICLETLTPDTQYEFQVRVKPLQGEFTTWSPWSQPLAFRTKPAALGKDT
B6: IL-2Rβγ complex (complex)
chain 1: AVNGTSQFTCFYNSRANISCVWSQDGALQDTSCQVHAWPDRRRWNQTCELLPVSQASWACNLILGAPDSQKLTTVDIVTLRVLCREGVRWRVMAIQDFKPFENLRLMAPISLQVVHVETHRCNISWEISQASHYFERHLEFEARTLSPGHTWEEAPLLTLKQKQEWICLETLTPDTQYEFQVRVKPLQGEFTTWSPWSQPLAFRTKPAALGKDT
chain 2: LNTTILTPNGNEDTTADFFLTTMPTDSLSVSTLPLPEVQCFVFNVEYMNCTWNSSSEPQPTNLTLHYWYKNSDNDKVQKCSHYLFSEEITSGCQLQKKEIHLYQTFVVQLQDPREPRRQATQMLKLQNLVIPWAPENLTLHKLSESQLELNWNNRFLNHCLEHLVQYRTDWDHSWTEQSVDYRHKFSLPSVDGQKRYTFRVRSRFNPLCGSAQHWSEWSHPIHWGSNTSKENPFLFALEA

These binders were tested against IL-2 variant 012 (assay: SPR).
For B1, the Kd was 0.575 nM.
In the case of B2, the Kd is reported as 0.467 nM.

The binders below were run against Wild type IL-2 (de-alanine-1, C58S, C125S) (UniProt P60568 21-153, de-alanine-1 | C58S | C125S) (assay: SPR).
Binder B3 has a Kd of 0.0423 nM.
With B4 the Kd was 47.5 nM.
For B5, the Kd was 89.1 nM.
B6 gave a Kd of 0.463 nM.

Reference: article PMC11024467 (2024)
